Reference: article PMC3413365 (The Journal of Cell Biology, 2012)

B1: Lucifer yellow–labeled BiP substrate peptide (NH2-HTFPAVLGSC-COOH) (peptide)
peptide: H-HTFPAVLGSC-OH
modifications: also: Lucifer yellow iodoacetamide label, residue not given here

What was measured:
Test in all cases: fluorescence polarisation
[1] = biological target: B1
BiP^Δ(554–654);R470E = BiP^Δ(554–654);R470E (hamster, UniProt G3I8R9 19-553, R470E)
BiP^R470E [2] = biological target: T1, BiP^R470E (hamster, UniProt G3I8R9 19-654, R470E)
[3] = biological target: T2, H6-tagged hamster BiP, wild type (hamster, UniProt G3I8R9 19-654)
Lidless BiP (Δ554-654) = Lidless BiP (Δ554-654) (hamster, UniProt G3I8R9 19-553)
BiP^R470E [4] = biological target: T1, BiP^R470E; remark: listed apart in the source
[5] = biological target: T2, H6-tagged hamster BiP, wild type; remark: listed apart in the source

T1 sequence (G3I8R9 19-654 R470E): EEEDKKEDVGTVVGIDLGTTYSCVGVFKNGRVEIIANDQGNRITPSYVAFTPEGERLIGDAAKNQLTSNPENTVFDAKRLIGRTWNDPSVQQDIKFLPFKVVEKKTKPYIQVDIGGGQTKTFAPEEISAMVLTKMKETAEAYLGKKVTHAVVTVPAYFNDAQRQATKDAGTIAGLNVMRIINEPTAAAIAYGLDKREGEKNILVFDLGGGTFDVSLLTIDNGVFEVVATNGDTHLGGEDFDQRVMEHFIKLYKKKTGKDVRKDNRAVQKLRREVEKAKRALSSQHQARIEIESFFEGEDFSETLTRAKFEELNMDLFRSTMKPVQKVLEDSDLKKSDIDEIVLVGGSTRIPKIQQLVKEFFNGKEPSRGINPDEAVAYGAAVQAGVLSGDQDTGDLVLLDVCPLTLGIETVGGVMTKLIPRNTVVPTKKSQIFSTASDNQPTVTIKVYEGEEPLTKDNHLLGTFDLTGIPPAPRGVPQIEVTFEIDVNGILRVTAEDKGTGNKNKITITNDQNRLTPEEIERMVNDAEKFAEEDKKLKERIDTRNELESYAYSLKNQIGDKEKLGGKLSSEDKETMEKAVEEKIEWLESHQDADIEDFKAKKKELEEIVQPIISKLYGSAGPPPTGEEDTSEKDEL
T2 sequence (G3I8R9 19-654): as the sequence (G3I8R9 19-654 R470E) above, with E452R counted along it
BiP^Δ(554–654);R470E, sequence (G3I8R9 19-553 R470E): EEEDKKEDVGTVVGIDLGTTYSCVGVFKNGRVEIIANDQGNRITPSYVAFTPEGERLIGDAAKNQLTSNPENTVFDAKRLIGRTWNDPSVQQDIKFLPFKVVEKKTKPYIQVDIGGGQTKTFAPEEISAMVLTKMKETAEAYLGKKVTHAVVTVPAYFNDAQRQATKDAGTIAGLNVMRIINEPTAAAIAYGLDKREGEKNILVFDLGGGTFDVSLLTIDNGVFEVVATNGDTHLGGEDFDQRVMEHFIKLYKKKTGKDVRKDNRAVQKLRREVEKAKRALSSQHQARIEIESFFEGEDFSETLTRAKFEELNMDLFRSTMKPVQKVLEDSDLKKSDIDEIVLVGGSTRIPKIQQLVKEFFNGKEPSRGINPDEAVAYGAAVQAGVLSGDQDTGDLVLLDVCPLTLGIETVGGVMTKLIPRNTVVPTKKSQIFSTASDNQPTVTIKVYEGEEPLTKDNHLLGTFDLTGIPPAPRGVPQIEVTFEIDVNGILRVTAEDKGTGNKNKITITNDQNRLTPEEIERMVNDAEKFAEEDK
Lidless BiP (Δ554-654), sequence (G3I8R9 19-553, stated change not applied): as the sequence (G3I8R9 19-553 R470E) above, with E452R counted along it

fold change of the peptide off-rate against wild type [1] [fold] | koff (BiP^Δ(554–654);R470E) [s⁻¹] | koff (BiP^R470E [2]) [s⁻¹] | koff [3] [s⁻¹] | koff (Lidless BiP (Δ554-654)) [s⁻¹] | Kd (BiP^R470E [4]) [µM] | Kd [5] [µM] | Binder
3 | – | – | – | – | – | – | BiP^R470K (natural protein) not shown
3 | – | – | – | – | – | – | BiP^R492K (natural protein) not shown
– | 0.00328 | 0.0074 | 0.0002 | 0.0017 | 9 | 13 | B1
